The record followed here is paper PMC4917896, “RNA binding proteins regulate anabolic and catabolic gene expression in chondrocytes”.

For the data set, the target named is TTP (tristetraprolin), GST-TTP (UniProt P26651 1-326). As to the kind of experiment: EMSA; 10 mM Tris-HCl pH 7.5, 50 mM KCl, 1 mM DTT, 5% glycerol, 500 ug/ml tRNA, 40 ng probe in 20 ul, 20 min at 4 C (stated for lysate EMSA); 6% native PAGE on ice. To be noted: protein: commercial; (GST fusion); label: 3' biotin. Background: In EMSA bound probe runs differently from free probe, usually more slowly.
Chain of TTP (tristetraprolin), GST-TTP (P26651 whole entry, the tested form may be a part): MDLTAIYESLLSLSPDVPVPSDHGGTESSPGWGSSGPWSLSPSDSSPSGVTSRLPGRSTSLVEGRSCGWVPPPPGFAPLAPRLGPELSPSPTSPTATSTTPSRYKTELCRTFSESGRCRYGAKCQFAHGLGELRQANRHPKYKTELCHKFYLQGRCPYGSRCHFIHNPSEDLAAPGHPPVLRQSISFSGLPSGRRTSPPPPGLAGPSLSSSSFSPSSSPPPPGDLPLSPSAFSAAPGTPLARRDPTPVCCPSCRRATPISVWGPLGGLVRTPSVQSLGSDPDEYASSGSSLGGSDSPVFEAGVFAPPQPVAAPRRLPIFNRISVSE

B1: P5M (probe 5, AUUUA to AGGGA) (ssRNA)
RNA: GGGAGCAGUUAACCUUCAAGACAUUCCACUUGCUAAAAUUAGGGAUUUUGUAAGGAGAGGUUUUAAUUAAAACAAAAAAAAA
Take B1: the binding result is “no binding”.

B2: P6M (probe 6, AUUUA to AGGGA) (ssRNA)
RNA: GGGGUUAAAUUAUGUUCUUAACUGUAACCAGUUUUUUUUUAGGGAUCUCUUUAAUCUUUUUUUAUUAUUAAAAGCAAGUUUC
Take B2: the binding result is “no binding”.
